Assays:
[1] = Solubility of the AIDA1 PTB domain and mutants
From the text: Since the objective of the aromatic-alanine substitutions was to improve solubility for a structure determination, ^15N-HSQC spectra were used qualitatively.

[2] = Thermal denaturation midpoint (Tm) by CD spectroscopy; format: physicochemical; conditions: far UV CD, ellipticity at 222 nm, 50 µM protein, heating 20–90°C at 2°C/min
Procedure: Far UV circular dichroism (CD) spectra were acquired with a Jasco J-810 instrument at a protein concentration of 50 µM using a rectangular cell with a 0.1 cm path length. Spectra were recorded from 260–200 nm with a scan rate of 50 nm/min and a 1.0 nm bandwidth. A midpoint denaturation temperature (Tm) was determined by heating samples from 20–90°C at 2°C/min and monitoring ellipticity at 222 nm.

B1: wild type: PTB domain (aa. 1043–1195) of human AIDA1b, amino terminal 6xHis tag and intervening thrombin site (protein, UniProt Q7Z6G8 1043-1195, looked up, fragment)
chain: TPVQYWQHHPEKLIFQSCDYKAFYLGSMLIKELRGTESTQDACAKMRANCQKSTEQMKKVPTIILSVSYKGVKFIDATNKNIIAEHEIRNISCAAQDPEDLSTFAYITKDLKSNHHYCHVFTAFDVNLAYEIILTLGQAFEVAYQLALQARKG
modifications: PTB domain His tag, thrombin site
notes: PTB domain (aa. 1043–1195) of human AIDA1b, amino terminal 6xHis tag and intervening thrombin site
solubility (in words) [1]: poor solubility
soluble concentration, at least one day at room temperature [1]: 0.15 mM
Solubility ([1]; concentrated until increased resonance line broadening or apparent turbidity, 15N-HSQC NMR read-out, 20 mM Na-phosphate, pH 7.8, […] NaCl, 0.05% (w/v) NaN3): 100 µM
Tm [2]: 62 °C
